First the molecules themselves.
B1: Histone deacetylase 3 (Homo sapiens), O15379 (parent)
chain: MAKTVAYFYDPDVGNFHYGAGHPMKPHRLALTHSLVLHYGLYKKMIVFKPYQASQHDMCRFHSEDYIDFLQRVSPTNMQGFTKSLNAFNVGDDCPVFPGLFEFCSRYTGASLQGATQLNNKICDIAINWAGGLHHAKKFEASGFCYVNDIVIGILELLKYHPRVLYIDIDIHHGDGVQEAFYLTDRVMTVSFHKYGNYFFPGTGDMYEVGAESGRYYCLNVPLRDGIDDQSYKHLFQPVINQVVDFYQPTCIVLQCGADSLGCDRLGCFNLSIRGHGECVEYVKSFNIPLLVLGGGGYTVRNVARCWTYETSLLVEEAISEELPYSEYFEYFAPDFTLHPDVSTRIENQNSRQYLDQIRQTIFENLKMLNHAPSVQIHDVPADLLTYDRTDEADAEERGPEENYSRPEAPNEFYDGDHDNDKESDVEI
partner: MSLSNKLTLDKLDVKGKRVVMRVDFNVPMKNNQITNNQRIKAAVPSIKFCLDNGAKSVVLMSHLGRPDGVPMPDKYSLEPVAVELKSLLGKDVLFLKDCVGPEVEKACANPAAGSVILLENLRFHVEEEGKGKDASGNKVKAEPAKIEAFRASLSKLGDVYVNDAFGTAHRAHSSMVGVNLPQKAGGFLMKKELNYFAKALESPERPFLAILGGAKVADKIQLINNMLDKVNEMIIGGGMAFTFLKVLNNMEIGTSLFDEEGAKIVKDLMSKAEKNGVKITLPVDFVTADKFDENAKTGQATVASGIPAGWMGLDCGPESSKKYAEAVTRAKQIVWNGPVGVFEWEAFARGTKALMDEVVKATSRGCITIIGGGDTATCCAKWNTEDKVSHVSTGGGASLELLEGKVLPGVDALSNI

Variants of B1 are the subject of one experiment. The following applies: with pgk1_human PGK1, P00558.
Turning to S424A, the “effect of a mutation on the interaction” value is “decreasing interaction strength”.

A further experiment covers variants of B1. The conditions noted are these: with PGK1, P00558-1.
Consider S424A, for which the “effect of a mutation on the interaction” value is reported as “decreasing interaction strength”.

(Values after IntAct's records for PubMed 26356530.)
